Measured values: US20210403547A1 (Eli Lilly, published 2021)
One block for each binder: values may come before it.

Experiments:
[1] = molecular target: T1, Mouse TGF-alpha (mouse (Mus musculus), UniProt P48030 39-88); experiment: SPR (Biacore), antibody captured on chip, ligand injected, 1:1 Langmuir fit, 25 C
T1 construct: also called mouse TGFα
Protocol: (§1) Biacore T2000 instrument (BIAcore® AB, Upsala, Sweden), reagents and Biacore T2000 Evaluation Software Ver 4.1 are used for the Surface Plasmon Resonance analysis. A CMS chip is prepared using manufacturer's EDC/NHS amine coupling method. The surfaces of all four flow cells are activated by injecting a 1:1 mixture of EDC/NHS for 7 minutes at 10 μL/min. […] Un-reacted sites are blocked with a 7 minute injection of ethanolamine at 10 μL/min. Injections of 3×20 seconds of glycine pH 1.5 at 30 μL/min are used to remove non-covalently associated protein. The running buffer is HBS-EP [10 mM HEPES, 150 mM Sodium Chloride, 3 mM EDTA, 0.005% Polysorbate 20].
(§2) Duplicate injections of each ligand concentration are injected at 30 μL/min for 300 seconds followed by a dissociation phase. […] Regeneration is performed by injecting 10 mM glycine pH 1.5 for 30 seconds at 30 μL/min over all flowcell.
(§3) Reference-subtracted data are collected as Fc2-Fc1. The measurements are obtained at 25° C. The on-rate (kₒₙ) and off-rate (koff) for each ligand are evaluated using a “1:1 (Langmuir) Binding” binding model. The affinity (KD) is calculated from the binding kinetics according to the relationship: KD=koff/kₒₙ.

[2] = molecular target: T2, Mouse Epiregulin (mouse (Mus musculus), UniProt Q61521 56-101); experiment: as above
Protocol: as §1, §2, §3

[3] = molecular target: T1, Mouse TGF-alpha; experiment: SPR (Biacore), antibody captured on chip, ligand injected, KD = koff/kon, 25 C
Protocol: as §1, §2, §3

[4] = molecular target: T2, Mouse Epiregulin; experiment: as above
Protocol: as §1, §2, §3

[5] = molecular target: Mouse Epigen (mouse (Mus musculus), UniProt Q924X1 53-103); experiment: SPR, 25 C
[6] = molecular target: T3, Rat TGF-alpha (rat, UniProt P01134 39-88); experiment: cell-based or functional assay
[7] = molecular target: T4, Met-human Epiregulin (human, UniProt O14944 63-108); experiment: cell-based or functional assay
[8] = molecular target: T2, Mouse Epiregulin; experiment: cell-based or functional assay
[9] = molecular target: Human TGF-alpha (human, UniProt P01135 40-89); experiment: cell-based or functional assay
[10] = molecular target: T3, Rat TGF-alpha; experiment: SPR (Biacore), antibody captured via anti-Fc on chip, ligand injected, KD = koff/kon, 25 C
Protocol: as §1
(§4) Duplicate injections of each ligand concentration are injected at 30 μL/min for 300 seconds followed by a dissociation phase. […] Regeneration is performed by injecting 10 mM glycine pH 1.5 for 3×20 seconds at 30 μL/min over all flowcell.
as §3

[11] = molecular target: T4, Met-human Epiregulin; experiment: as above
Protocol: as §1, §4, §3

[12] = molecular target: T5, Cynomolgus Epiregulin (cynomolgus (Macaca fascicularis), UniProt O14944 63-108 (human entry)); experiment: as above
T5 construct: also called cynomolgus monkey epiregulin
Protocol: as §1, §4, §3

[13] = molecular target: T2, Mouse Epiregulin; experiment: as above
Protocol: as §1, §4, §3

[14] = molecular target: T3, Rat TGF-alpha; experiment: cell-based or functional assay; remark: listed apart in the source
[15] = molecular target: rat epiregulin (rat, UniProt Q9Z0L5 56-101, limits assumed); experiment: cell-based or functional assay
[16] = molecular target: rat epigen (rat); experiment: cell-based or functional assay
[17] = molecular target: T4, Met-human Epiregulin; experiment: cell-based or functional assay; remark: listed apart in the source
[18] = molecular target: T1, Mouse TGF-alpha; experiment: cell-based or functional assay
[19] = molecular target: cynomolgus monkey epigen (cynomolgus monkey, UniProt G7P5K4 23-110); experiment: cell-based or functional assay
[20] = molecular target: T5, Cynomolgus Epiregulin; experiment: cell-based or functional assay
[21] = molecular target: T2, Mouse Epiregulin; experiment: cell-based or functional assay; remark: listed apart in the source
[22] = molecular target: Human HBEGF (human, UniProt Q99075 63-148); experiment: cell-based or functional assay
[23] = molecular target: T6, Human Betacellulin (human, UniProt P35070 32-111); experiment: cell-based or functional assay
T6 sequence: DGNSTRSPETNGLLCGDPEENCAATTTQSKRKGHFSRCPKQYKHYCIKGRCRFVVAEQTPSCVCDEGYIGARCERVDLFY

[24] = molecular target: Human EGF (human, UniProt P01133 971-1023); experiment: cell-based or functional assay
[25] = molecular target: T7, Human Amphiregulin (human, UniProt P15514 101-187); experiment: cell-based or functional assay
T7 sequence: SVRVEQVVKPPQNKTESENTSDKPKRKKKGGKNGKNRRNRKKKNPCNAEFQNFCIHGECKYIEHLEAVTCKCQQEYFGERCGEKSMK

- koff [1]: 2.02e-05 s⁻¹
- kon [1]: 541000 M⁻¹ s⁻¹
- koff [2]: 0.0141 s⁻¹
- kon [2]: 65500 M⁻¹ s⁻¹
- Kd [3]: 0.038 nM
- Kd [4]: 215 nM
- Kd [5]: 365 nM
- IC50, neutralization of ligand-stimulated MFc7 cell proliferation (BrDU incorporation), ligand at 0.5 nM [6]: 0.13 nM
- IC50, neutralization of ligand-stimulated MFc7 cell proliferation (BrDU incorporation) [7]: 1.12 nM
- IC50, neutralization of ligand-stimulated MFc7 cell proliferation (BrDU incorporation), ligand at 0.5 nM [8]: 214 nM
- IC50, neutralization of ligand-stimulated MFc7 cell proliferation (BrDU incorporation) [9]: 0.52 nM
B1: Antibody III (antibody, mouse IgG1, kappa, V domains shown)
VH: QVQLQQSGPELVKPGASVKISCKASGYTFTDAYINWVKQRPGQGLEWIGWIWPGPVITYYNPKFKGKATLTVDKSSSTAYMLLSSLTSEDSAFYFCARREVLSPFAYWGQGTLVTVSA
VL: DVLMTQTPLSLPVSLGDQASISCRSSQSIVHSTGNTYLEWYLQKPGQSPKLLIYKVSNRFSGVPDRFSGSGSGTDFTLKISRVEAEDLGVYYCFHGTHVPYTFGGGTKLEIKR
notes: Mouse monoclonal antibody with the same CDRs as Antibody I; also called mouse antibody

- Kd [10]: 0.0705 nM
- Kd [11]: 1.29 nM
- Kd [12]: 1.05 nM
- Kd [13]: 342 nM
- IC50, neutralization of ligand-stimulated myofibroblast proliferation [14]: < 0.5 nM
- IC50, neutralization of ligand-stimulated myofibroblast proliferation [15]: < 350 nM
- IC50, neutralization of ligand-stimulated myofibroblast proliferation [16]: < 850 nM
- IC50, neutralization of ligand-stimulated myofibroblast proliferation [17]: < 3.5 nM
- IC50, neutralization of ligand-stimulated myofibroblast proliferation [18]: < 0.5 nM
- IC50, neutralization of ligand-stimulated myofibroblast proliferation [19]: < 850 nM
- IC50, neutralization of ligand-stimulated myofibroblast proliferation [20]: < 3.5 nM
- IC50, neutralization of ligand-stimulated myofibroblast proliferation [21]: < 350 nM
- IC50, neutralization of ligand-stimulated MFc7 cell proliferation (BrDU incorporation), ligand at 0.5 nM [6]: 0.19 nM
- IC50, neutralization of ligand-stimulated MFc7 cell proliferation (BrDU incorporation), ligand at 0.5 nM [7]: 3.15 nM
- IC50, neutralization of ligand-stimulated MFc7 cell proliferation (BrDU incorporation), ligand at 0.5 nM [22]: > 2000 nM
- IC50, neutralization of ligand-stimulated MFc7 cell proliferation (BrDU incorporation), ligand at 0.5 nM [8]: 334 nM
- IC50, neutralization of ligand-stimulated MFc7 cell proliferation (BrDU incorporation), ligand at 0.5 nM [23]: > 2000 nM
- IC50, neutralization of ligand-stimulated MFc7 cell proliferation (BrDU incorporation), ligand at 0.5 nM [24]: > 2000 nM
- IC50, neutralization of ligand-stimulated MFc7 cell proliferation (BrDU incorporation), ligand at 60 nM [25]: > 2000 nM
B2: Antibody I (antibody, human IgG4 S228P, kappa, F234A L235A, V domains shown)
VH: QVQLVQSGAEVKKPGSSVKVSCKASGYTFTDAYINWVRQAPGQGLEWMGWIWPGPVITYYNPKFKGRVTITADKSTSTAYMELSSLRSEDTAVYYCARREVLSPFAYWGQGTTVTVSS
VL: DIVMTQSPDSLAVSLGERATINCRSSQSIVHSTGNTYLEWYQQKPGQPPKLLIYKVSNRFSGVPDRFSGSGSGTDFTLTISSLQAEDVAVYYCFHGTHVPYTFGGGTKVEIKR
notes: Humanized IgG4 monoclonal antibody
